Experimental data taken from US20210292393A1.
“And” between values parts separate entries of the source, which are not always exact repeats. Identical values can stand only once.

Key:
Conditions in all cases: remark: other sources report otherwise
[1] = molecular target: SARS-CoV-2 spike (S) protein, full length, wild type, expressed on the surface of CHO cells (SARS-CoV-2), P0DTC2
[2] = molecular target: SARS-CoV-2 spike (S) protein (SARS-CoV-2), P0DTC2
[3] = molecular target: SARS-CoV-2 full length spike protein (wild type) (SARS-CoV-2), P0DTC2
[4] = molecular target: SARS-CoV-2 full length spike protein, wild type, expressed on the surface of CHO cells (SARS-CoV-2), P0DTC2
[5] = molecular target: SARS-CoV-2 spike protein (SARS-CoV-2), P0DTC2; assay: HT-SPR, Carterra LSA; mAb coupled to chip, antigen injected; 1:1 fit
[6] = molecular target: SARS-CoV-2 full length spike protein (wild-type), conjugated to optically encoded beads (SARS-CoV-2), P0DTC2

B1: antibody 322 (antibody, V domains shown)
VH: EVQLVESGGGLVQPGGSLRLSCAASGFTFSSYWMSWVRQAPGKGLEWVANIKQDGSEKYYVDSVKGRFTISRDNAKNSLYLQMNSLRAEDTAVYYCARDEDVAAALDYWGQGTLVTVSS
VL: SYVLTQPPSVSVAPGKTARITCGGNNIGSKSVHWYQQKPGQAPVLVIYYDSDRPSGIPERFSGSNSGNTATLTISRVEAGDEADYYCQVWDSSSDHPERVFGGGTKLTVL
[1]
  median fluorescence fold over isotype (fold over isotype): 4.94 and 1.65
[2]
  Kd: 21.1 nM
  koff: 0.000401 s⁻¹
  kon: 19000 M⁻¹ s⁻¹

B2: antibody 325 (antibody, V domains shown)
VH: QVQLQESGPGLVKPSQTLSLTCTVSGGSISGGGYYWSWIRQHPGKGLEWIGYIYYSGSTYYNPSLQSRVTISVDTSKNQFSLKLSSVTAADTAVYYCARVGTSSVWYFDYWGQGTLVTVSS
VL: QSALTQPRSVSGSPGQSVTISCTGTSSDVGGYNYVSWYQQHPGKAPKLMIYDVTKRPSGVPDRFSGSKSGNTASLTISGLQAEDEADYYCSSYAGSWVFGGGTKLTVL
[1]
  median fluorescence fold over isotype (fold over isotype): 1.14 and 1.08
[2]
  Kd: 7.36 nM
  koff: 0.000154 s⁻¹
  kon: 20900 M⁻¹ s⁻¹

B3: antibody 304 (antibody, V domains shown)
VH: EVQLLESGGGLVQPGGSLRLSCAASGFTFSTYAMSWVRQAPGKGLEWVSAISGSGGSTYYADSVKGRFTISRDNSKNTLYLQMNSLRAEDTAVYYCASGYSPDYWGQGTLVTVSS
VL: AIQMTQSPSSLSASVGDRVTITCRASQGIRNDLGWYQQKPGKAPKLLIYAASSLQSGVPSRFSGSGSGTDFTLTISSLQPEDFATYYCLQDYNYPRTFGQGTKVEIK
[3]
  binding signal, bead assay (fold over isotype): 1.22 and 1.17 and 1.09
[2]
  Kd: 3.14 nM
  koff: 0.000274 s⁻¹
  kon: 87300 M⁻¹ s⁻¹

B4: antibody 499 (antibody, V domains shown)
VH: EVQLVESGGGLVKPGGSLRLSCAASGFTFSSYSMNWVRQAPGKGLEWVSSISSSSSYIYYADSVKGRFTISRDNAKNSLYLQMNSLRAEDTAVYYCARAPAGIVVGPDYWGQGTLVTVSS
VL: NFMLTQPHSVSESPGKTVTISCTGSSGSIASNYVQWYQQRPGSAPTTVIFEDNQRPSGVPDRFSGSIDSSSNSASLTISGLKTEDEADYYCQSYHSSNPHVVFGGGTKLTVL
[4]
  median fluorescence fold over isotype control (fold over isotype): 1.35 and 0.9
[5]
  Kd: 0.297 nM
  koff: 1.88e-05 s⁻¹
  kon: 63300 M⁻¹ s⁻¹

B5: antibody 505 (antibody, V domains shown)
VH: EVQLVESGGGLVKPGGSLRLSCAASGFTFSSYSMNWVRQAPGKGLEWVSSISSSSSYIYYADSVKGRITISRDNAKNSLYLQMNSLRAEDTAVYYCAREYPNFRAEWLLSPYGMDVWGQGTTVTVSS
VL: QSALTQPASVSGSPGQSITISCTGTSSDVGSYNLVSWYQQHPGKAPKLMIYEVSKRPSGVSNRFSGSKSGNTASLTISGLQAEDEADYYCCSYAGSSTSVKVFGTGTKVTVL
[4]
  median fluorescence fold over isotype control (fold over isotype): 1.55
[6]
  median fluorescence fold over isotype (fold over isotype): 658

B6: antibody 507 (antibody, V domains shown)
VH: QVQLQESGPGLVKPSGTLSLTCAVSGGSISSSNWWSWVRQPPGKGLEWIGEIYHSGNTNYNPSLKSRVTISVDKSKNQFSLKLSSVTAADTAVYYCARREWLRLFDYWGQGTLVTVSS
VL: QSALTQPASVSGSPGQSITISCTGTSSDVGSYNLVSWYQQHPGKAPKLMIYEVSKRPSGVSNRFSGSKSGNTASLTISGLQAEDEADYYCCSYAGSSTYVFGTGTKVTVL
[4]
  median fluorescence fold over isotype control (fold over isotype): 1.51
[6]
  median fluorescence fold over isotype (fold over isotype): 571

B7: antibody 521 (antibody, V domains shown)
VH: QVQLVESGGGVVQPGRSLRLSCAASGFTFSSYGMHWVRQAPGKGLEWVAVIWYDGSNKYYADSVKGRFTISRDNSKNTLYLQMNSLRAEDTAVYYCAREGNDYGDYGEWELLGYFDYWGQGTLVTVSS
VL: SYELTQPPSVSVSPGQTARITCSGDALPKKYAYWYQQKSGQAPVLVIYEDSKRPSGIPERFSGSSSGTMATLTISGAQVEDEADYYCYSTDSSGNHRRVFGGGTKLTVL
[4]
  median fluorescence fold over isotype control (fold over isotype): 2.42 and 0.86
[5]
  Kd: 9.9 nM
  koff: 0.000299 s⁻¹
  kon: 30200 M⁻¹ s⁻¹

B8: antibody 524 (antibody, V domains shown)
VH: QVQLVESGGGVVQPGRSLRLSCAASGFTFSSYAMHWVRQAPGKGLEWVAVISYDGSNKYYADSVKGRFTISRDNSKNTLYLQMNSLRAEDTAVYYCAKAGGGSYYRGFDYWGQGTLVTVSS
VL: QSVLTQPPSVSAAPGQKVTISCSGSNSNIGNNYVSWYQQLPGSAPKLLIYDNDKRPSGIPDRFSGSKSGTSATLGITGLQTGDEADYYCGAWDSSLTALVFGGGTKLTVL
[4]
  median fluorescence fold over isotype control (fold over isotype): 0.58 and 0.55
[5]
  Kd: 34.6 nM
  koff: 0.00272 s⁻¹
  kon: 78600 M⁻¹ s⁻¹

B9: antibody 538 (antibody, V domains shown)
VH: QLQLQESGPGLVKPSETLSLTCTVSGGSISSSSYYWGWIRQPPGKGLEWIGSINYSGSTYYNPSLKSRVTISVDTSKNQFSLKLSSVTAADTAVYYCARYHDYGDDYWGQGTLVTVSS
VL: QLVLTQSPSASASLGASVKLTCTLSSGHSRYAIAWHQQQPEKGPRYLMKLNSDGSHSKGDGIPDRFSGSSSGAERYLTISSLQSEDEADYYCQTWGTGIQVFGGGTKLTVL
[4]
  median fluorescence fold over isotype control (fold over isotype): 1.96
[6]
  median fluorescence fold over isotype (fold over isotype): 607

B10: antibody 544 (antibody, V domains shown)
VH: QVQLQQWGAGLLKPSETLSLTCAVYGGSFSGYYWSWIRQPPGKGLEWIGEINHSGSTNYNPSLKSRVTISVDTSKNQFSLKLSSVTAADTAVYYCARGFKWFGELLFGAQGTLVTVSS
VL: not shown
[4]
  median fluorescence fold over isotype control (fold over isotype): 2.48
[6]
  median fluorescence fold over isotype (fold over isotype): 639

B11: antibody 259 (antibody, V domains shown)
VH: EVQLVQSGAEVKKPGATVKISCKVSGYTFTDYYMHWVQQAPGKGLEWMGLVDPEDGETIYAEKFQGRVTITADTSTDTAYMELSSLRSEDTAVYYCATDLLSWKLYCSGGSCPQMDVWGQGTTVTVSS
VL: DIQMTQSPSSLSASVGDRVTITCRASQGIRNDLGWYQQKPGKAPKRLIYAASSLQSGVPSRFSGSGSGTEFTLTISSLQPEDFATYYCLQHNSYPQTFGQGTKLEIK
[3]
  binding signal, bead assay (fold over isotype): 275

B12: antibody 267 (antibody, V domains shown)
VH: EVHLVQSGAEMKKPGATVKISCKVSGNTFIDHYIQWVQQAPGKGFEWMGLVDPEDGETIYAEKFQGRVTITADTSRDTAYMELSSLKSEDTAVYYCGTHGDYLDYWGQGTLVTVSS
VL: FYELTQPSSVSVSPGQTALITCSGDVVAKKYARWFQQKAGQAPVLVIYKDTERPSGIPERISGSSSGTTVTLTISGAQVEDEADYYCYSATDNNLVFGGGTKVTVL
[3]
  binding signal, bead assay (fold over isotype): 312

B13: antibody 270 (antibody, V domains shown)
VH: QVQLVQSGAEVKRPGTSVKVSCKTSGYTFTDHFIHWVRQAPGRRLEWMGWINPNSGGTNYAQNFQGRVTMTRDTSITTAYMDLTRLTSDDTAIYYCAREAAYGSGNLNWFDPWGQGTRVTVSS
VL: NFMLTQPHSVSESPGKTVTISCTGSSGSIAANYVHWYQQRPGSAPRTVIYEDNQRPSGVPDRFSGSIDSSSNSASLTISGLKTEDEADYYCQSYDGDSWVFGGGTKLTVL
[3]
  binding signal, bead assay (fold over isotype): 305

B14: antibody 551 (antibody, V domains shown)
VH: EVQLVESGGGLVQPGGSLRLSCAASGFTFSSYWMSWVRQAPGKGLEWVANINQDGSDKYYVDSVKGRFTISRDNAKNSLYLQMNSLRAEDTAVYYCARAPGWAAAPTFDYWGQGTLVTVSS
VL: QSALTQPRSVSGSPGQSVTISCTGTSSDVGGYNYVSWYQQHPGKAPKFMIYDVSKRPSGVPDRFSGSKSGNTASLTISGLQAEDEADYYCCSYAGSYTLVVFGGGTKLTVL
[6]
  median fluorescence fold over isotype (fold over isotype): 649
